Measured values published in patent US20220256794A1, “TERPENE SYNTHASES AND TRANSPORTERS” (The State of Israel, Ministry of Agriculture & Rural …, priority 2019, published 2022).

Tests used:
yeast cells [1] = test: Yeast growth (turbidity A600) in the presence of CBD; assay type: cell-based, Saccharomyces cerevisiae (strain Y1HGold); settings: 0.5 mM CBD, 7-12 hours, FIG. 2
Protocol: (§1) The genes were expressed in yeast and tobacco. For yeast, the ABC and PTR Transporter genes were synthesized by the TWIST Co, cloned and expressed (individually) in the yeast expression vector pESC-URA (Agilent Technologies) for expression under the yeast native gal-10 promoter. Competent Saccharomyces cerevisiae (strain Y1HGold, CloneTech) cells were prepared, transformed by each of the resulting vector and selected on yeast synthetic media lacking Uracil as previously described [GietzR. D., Methods Mol. Biol. (2014) 1205:1-12].
An alternative method is to measure the yeast growth as a function of turbidity. Transformed yeast cells were grown on URA-glucose broth at 30° C. at 200 RPM, and after 24 hours 100 μl was used to inoculate 5 ml of URA-galactose broth in the same conditions till O.D.600 of 1.5. The yeast was further diluted to OD600=0.05 with 10 ml URA-galactose, and divided into two 5 ml aliquots into separate 50 ml falcon tubes. The first falcon (control) was added 78 μl acetonitrile (the solvent that the CBD was dissolved in), and the second one was added 78 μl CBD solution in acetonitrile (final CBD concentration=0.5 mM). […]

yeast cells [2] = test: Uptake of CBD into yeast cells; assay type: cell-based, Saccharomyces cerevisiae (strain Y1HGold); settings: 0.5 mM CBD, three hour incubation, FIG. 3A and FIG. 4
Protocol: as §1
An additional strategy for determining transporter function is to measure the amount of exogenous CBD taken up and incorporated into the cells.
Transformed yeast cells were grown on URA-glucose broth at 30° C. at 200 RPM, and after 24 hours 100 μl was used to inoculate 5 ml of URA-galactose broth in the same conditions till OD600 of […]. The yeast was incubated with 0.5 mM CBD for 2-8 hours in 30° C. at 100 RPM, then centrifuged at 15000 g for 1 minute, and washed twice with 1 ml distilled water. The pellet was weighed and underwent HPLC analysis to determine the pellet's CBD content. The pellet was extracted in 1 ml methanol, and following centrifugation and filter was analyzed by HPLC using a diode-array detector and CBD was quantified against a commercial standard.

[3] = Terpene synthase activity assay with GPP; assay type: biochemical; settings: TPS expressed in E. coli; 10 μM GPP, overnight at 30° C., SPME GC-MS
Protocol: Putative terpene synthase genes were synthesized by the TWIST Co., and cloned into Novagen pET-28a(+) with a 6×His tag at its' N-terminus. The recombinant plasmid was then sequenced for authentication and transformed into BL21(DE3) pLysS and pLysE strains of E. coli (Agilent Technologies) for heterologous expression. An overnight culture was used to inoculate a 20-200 mL culture, induced with 0.1 mM IPTG at an OD 600 nm >0,8 for initiation of recombinant protein translation then incubated at 18° C. and 250 RPM overnight. The cells were collected by centrifugation and the recombinant enzymes were extracted either as a crude extract or purified on a Ni-NTA agarose resin as previously described [Gonda I. et al., The Plant Journal (2013) 61, 458-472].
To determine the terpene synthase catalytic activity, reaction mixtures containing 100 μl of protein extract or purified protein were incubated overnight at 30° C. with either 10 μM geranyl diphosphate (GPP) or farnesyl diphosphate (FPP), in a final volume of 200 μl using a buffer containing 50 mM bis-tris, pH 6.9, 1 mM DTT, 10% (v/v) glycerol, 0.1 mM of MnCl2 and 10 mM of MgCl2. The volatiles produced were extracted by solid-phase microextraction (SPME) according to the methodology previously described [Iijima Y. et al., Plant Physiol (2004) 136: 3724-3736]. As controls, reactions were carried out without the cofactors MnCl2 and MgCl2, or protein extracts were heat inactivated by incubation at 100° C. for 5 minutes, or a short peptide product of an empty pET100 vector was utilized.
For solid-phase microextraction (SPME) analysis, a 57298-U SPME fiber assembly Divinylbenzene/Carboxen/Polydimethylsiloxane (DVB/CAR/PDMS, Supelco) needle size 23 ga, StableFlex, was used with an autosampler and analyzed by GC-MS as previously described [Davidovich-Rikanati R. et al., Nature Biotech (2007) 25:899-901; Davidovich-Rikanati R. et al., Plant J (2008) 56:228-238]. The SPME fiber were adsorbed for 30 min. by automatic HS-SPME at 50° C. followed by injection of the fiber into a GC-MS injection port for 5 min. (splitless), for desorption of the volatiles. Chiral separation was conducted on a Restek Rt™-bDEXsm column (30 m length 0.25 mm i.d., 0.25 μm film thickness, 2,3-di-O-methyl-6-O-tert-butyl dimethylsilyl beta cyclodextrin added into 14% cyanopropylphenyl/86% dimethyl polysiloxane). Helium (0.8 ml min-1) was used as a carrier gas with splitless injection. The injector temperature was 250° C., and the detector temperature was 230° C. The following conditions were used: initial temperature 40° C. for 5 min., followed by a ramp of 2° C./min. to 110° C., and 10° C./min up to 230° C. (5 min.). A quadrupole mass detector with electron ionization at 70 eV was used to acquire the MS data in the range of 41 to 350 m/z. The identification of the volatiles was assigned by comparison spectral data with the W10N11 and HPCH2205 GC-MS libraries and with authentic standard when available.

Molecule	inhibition of yeast growth in response to CBD, transporter-expressing yeast vs control yeast (yeast cells [1])	net uptake of CBD into yeast cells compared to control (empty vector) yeast (yeast cells [2])	Monoterpenes produced with GPP [3]
T-AG2575-1: Cannabis ABC-G transporter gene product, amino acid SEQ ID NO: 55 (protein, ABC+PTR Transporter amino acid sequence (of the 12 identified gene products)) MEVGDLYKAGNSLRSSKGSSVWRGNNNNNNNKDEFFSKSRREDDIDDEEALTWAALEKLPTYDRLRKGILTTSKGKPTEVDVINLGSKERKDLLRRLVNVADEDNESFLLKLKQRIQTVGIELPTIEVRYENIKVEADVHVGSRALPSFINFCVNILEMLVSFLPILKSKKKHVTILDDVSGAIKPGRLTLLLGPPNSGKTTLLLTLAGKLASELKFSGRVTYNGHEMNEFIPQRTAAYISQHDVHIGEMTVRETLSFSARCQGVGTRYDMLAELSRREKEANITPDPDIDVFMKAASAEGQESSVITDYIIKILGLEGCADTMVGNEMLRGISGGQKKRVTTGEMLVGPAGALFMDEISTGLDSSTTFQIVNSLKQFAHIFEETIVISLLQPAPETYDLFDDIILLSDGQIVYQGPRENVLEFFELTGFKCPERKAIADFLQEVTSRKDQAQYWARSDQPYKFVTVNEFVEAFQSFHIGKKVVEHLSIPFDKTKSHPAALTTKPYGLNKMELLKACMSREFLLMKRNSFVHIFKIVQLGILGLISATIFLRTKMHHKTLQDGSIYLGALFFSTLMIMFNGLSEVPMTIVKLPVFYKQRDLQFFPAWAYALPSMIYKAPVAFIEVLVWMTITYYSIGFDPYFGRVVKLYVLFVIINQMASGLFRAIASIGRSMIIANTFGAFSLLLLFVLGGFVLSRDFIKGWWIWGYWISPLMYGQTGVVVNEFNGNKWKHVPPNSTETLGVQVLKARGFFTDSYWYWLGFAALSAYVVIFNFVYTLALTYLNPLEQRQAVSNENSESGDIQNDEEGEVIEMTQRPKNMGENQSKKKGMILPFEPHSICFDDVCYSVDMPQEMKGQGVVEDKLVLLKSVSGSFRPGVLTALMGVSGAGKTTLMDVLAGRKTGGYIEGDIRISGYPKKQETFARISGYCEQNDIHSPYVTVYESLLYSAWLRLPSEVDMDTRKMFIEEVMELVELVPLRQALVGLPGVNGLSTEQRKRLTIAVELVANPSIIFMDEPTSGLDARAAAIVMRTVRNTVDTGRTVVCTIHQPSIDIFEAFDELFLLKIGGEEIYVGPLGRHSCHLINYFEAIEGVSKIKEGYNPGTWMLEVSSSAQEMALGVDFANIYKNSDLYKRNKELIKELSTPAPGSKDLYFPTQFSRSLYTQCIACLWKQRQSYWRNPLYTAVRFMFTTFIALMFGTMFWDLGSKRSNKQDLTNALGSMYSAVLFIGVQNSSSVQPVVGVERTVFYREKAAGMFSAFPYTFGQVVVEIPYIICQAVVYCLIVYAMMGFEWTAVKFFWYLFFTFFSMLYFTFYGMMAVGITPNNHVASIISAAFYSIWNLFSGFIVPRTRIPIWWRWYYWGCPTAWTLYGLLVSQYGDVEDVMDAETGETVKQYLKSYFGYKHDFIGVVAMVNVFYGLLFGGIFALSIKVLNFQNR	reduced inhibition of growth	reduced net uptake of CBD	–
AG3403-2: Cannabis terpene synthase gene product, amino acid SEQ ID NO: 40 (protein, Terpene Synthase Gene Amino acid sequence of the 45 identified gene products) MHCITLKHQISPLLPNICSTTNFGVFFRPKLYTNYNIINNATKSRLSSACYPIQCAVVNSSNAIIDRRSANFEPSIWSFDYIQSLTSQYKGEPYTSRVKKLERDVKKILVEMENSLAQLELIDTLQRLGISYRFENEINSILNKKYVNINNPNYNLYAIALQFRLLRQHGYAVPQEIFNQLKDEIENIKKNINGNDIMGILALYEASFYEKKGESILKEARIFTTKCLKNYTIMISEQKKLLIDNDYDYDIEVVNHALELPLHRRTTRTEAKWFIDAYAKKQDMNPMLLELAKLNFNTVQSTHHEDLKHIFRWWRHTKLGEKLNFARDRLMECFLWNIGIRFESKFSYFRTKTAKLFELVTFIDDIYDVYGTLDELELFTKAVERWDVKMINELPEYMKMPYLVLHNTINDMVFEVLRDQEISINIQYLKKTWVDMCKSFLQEAKWYYSGYTPTLEEYIENGWISVGAPVILVHAYFFHANNNRTITNTKEIFECLEHGYYPAIIRHSAIILRFTNDLTTSSEELKRGDAPTSIQCYMQEKNVSEEEAREHIKFLINEAWKEMNNDVGLYPISLTEDATNFAKMGFFIYQHGDGHSSQDNQSKQKISSLIIEPIPLYT	–	–	beta-myrcene and geraniol
799-4: Cannabis terpene synthase gene product, amino acid SEQ ID NO: 33 (protein, Terpene Synthase Gene Amino acid sequence of the 45 identified gene products) MSNIQVLASSQLSDKIIARPTTNFHPSIWGDRFLHYNISEQDLVCKEERIEELIQVVKKEILSSNHDQLKLIDNLQRLGLSHHFESEIEKLLEHLSTTHHQNHHDLHDASLCFRLLRQHGFNVSSSIFEKFKDEKGNFKGSLITDVPGLLSLYEASHLSYVGESILDEALAFTTTHLKAIVANSKDHPLSHQISIALHRPLRKTIERLHARFYISIYEKDASHNKVLLELAKLDFNLLQCFHKKELSEIMRWWKEHEFAKKFPFARDRMVEQYFWILGVYYEPKYSRARKLLTKVIALASITDDIYDAYGTIDELELLTKAMQRWDITCMDKLEPEYLKTYYKAMLDSYEEFEKELKKEELYKLEYAKEEMKRIIGAYFEEARWLSEGYFPSLDEHLKVSYVSCGYVLLIATSYVGMYDIVTHETLNWLSKDPKIVSASTLLARFMDDIGSRKFEQKRNHIPSTVDCYMKQYEVSEEEAIKELNKRVDTHWKEINEDFIRPTVVPFPILVRVLNFTKTVDLLYKEGDDQYTNVGKVLKESIAALLIDSIPL	–	–	myrcene
